Results from publication PMC10290134, “Development of a one-shot dual aptamer-based fluorescence nanosensor for rapid, sensitive, and label-free detection of periostin”.

T1: Periostin (UniProt Q15063 496-836)
T1 sequence: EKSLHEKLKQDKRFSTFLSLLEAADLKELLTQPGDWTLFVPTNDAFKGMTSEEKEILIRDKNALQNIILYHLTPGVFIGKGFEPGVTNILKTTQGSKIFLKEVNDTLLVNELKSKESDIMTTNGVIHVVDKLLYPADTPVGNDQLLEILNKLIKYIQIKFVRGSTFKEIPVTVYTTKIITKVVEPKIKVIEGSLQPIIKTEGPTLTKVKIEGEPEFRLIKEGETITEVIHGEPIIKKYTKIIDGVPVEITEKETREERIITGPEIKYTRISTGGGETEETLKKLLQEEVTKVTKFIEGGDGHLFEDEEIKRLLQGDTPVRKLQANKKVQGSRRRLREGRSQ

B1: PL5 (ssDNA)
DNA: CACCTAATACGACTCACTATAGCGGATCCGATTCGAACCAGAATATTAGTCGCAAAATCTTGATGCAGTCACTGGCTCGAACAAGCTTGC
B2: PL5trunc (ssDNA)
DNA: TAATACGACTCACTATAGCGGATCCGATTCGAACCAGAATATTAGTCGCAAAATCTTGATG
B3: PL2 (ssDNA)
DNA: CACCTAATACGACTCACTATAGCGGATCCGAAAGTCAACGCCAGATAAAAACAATTTGCCTTCCTCCGCCCCTGGCTCGAACAAGCTTGC

Target: T1, Periostin
Test: magnetic bead fluorescence assay; 5 mM Mg2+; 20 mM Tris-HCl pH 8.0, 100 mM NaCl, 5 mM KCl, 5 mM MgCl2, 0.05% Tween 20, 25 °C, 1 h; His-tagged periostin on His-tag magnetic beads
Conditions: protein: recombinant; tags: 6xHis (pET-28a); label: 5' Cy3

Binder	Kd [nM]
B1	50.1
TCAACGCCAGATAAAAACAATTTGCCTTCCTCCGCCCCTGGCTCGAA (ssDNA) [PL2trunc]	10.1
B2	37
B3	45.7
